Laboratory results from patent publication US20200071380A1, “COMBINATION THERAPIES COMPRISING SIRP ALPHA-BASED CHIMERIC PROTEINS” (Shattuck Labs, Inc., priority 2018, published 2020).
Several values for one entry are separate records, joined by “and”; a condition that tells them apart may be missing. Equal values may be shown once.

Legend:
[1] = biological target: recombinant human CD40 (human) (UniProt P25942); assay: SPR
FcγR-Ia = FcγR-Ia (Homo sapiens, UniProt P12314); assay: SPR
tumors = assay: Mouse tumor model, SIRPα-Fc-OX40L and checkpoint antibodies (Example 14)
[2] = tested on: macrophages co-cultured with Toledo lymphoma cells; assay: qRT-PCR of macrophages sorted from Toledo lymphoma co-cultures; type: cell-based, human; conditions: qRT-PCR on macrophages isolated by FACS from Toledo co-cultures
Protocol: FIG. 8D: Macrophage:Toledo lymphoma co-cultures were harvested 2 hours into phagocytosis assays in the presence of rituximab ([…]), SIRPα-Fc-CD40L ([…]), or the combination of both agents. Macrophages were isolated by CD11b+FACS, RNA was prepared, cDNA synthesized, and gene expression (IFNa1, IFNb1, CD80, and CD86) assessed by qRT-PCR. Fold change was calculated using DDCT and values obtained from the housekeeping gene ACTB, and the corresponding values from untreated samples. […] After 2 hours, co-cultures were isolated from tissue culture vessels and were stained with a fluorescently conjugated CD11b antibody to discriminate macrophages. Cells were then assessed by flow cytometry for the co-localization of fluorescent signal from both cells types. […] After 24-hours type I interferon induced luminescence was assessed using a luminometer. The maximum luminescence (RLU) from each experiment was set to 1, and all other samples were normalized accordingly. […]
RNA was prepared from macrophages isolated using fluorescent activated cell sorting (FACS) from SIRPα-Fc-CD40L/Rituximab treated co-cultures macrophages and Toledo lymphoma cells. The RNA was assessed by gRT-PCR for expression of IFNα1 and IFNβ1, and the macrophage activation markers CD80 and CD86.

recombinant mouse CD40 = biological target: T1, recombinant mouse CD40 (mouse, UniProt P27512 20-193, limits assumed); assay: dual ELISA: coat mCD47-Fc, titrated mSIRPα-Fc-CD40L, detect mCD40-His, tertiary anti-his-HRP, OD450. This is the same curve as the CD47 row. mCD40-His is the detecting receptor.
T1 construct: also called murine CD40
T1 sequence (P27512 20-193 limits assumed): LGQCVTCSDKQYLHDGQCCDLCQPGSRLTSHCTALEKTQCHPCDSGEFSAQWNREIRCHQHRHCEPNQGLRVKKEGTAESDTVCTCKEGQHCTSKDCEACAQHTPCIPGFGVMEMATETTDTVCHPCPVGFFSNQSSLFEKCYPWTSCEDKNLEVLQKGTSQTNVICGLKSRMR

recombinant mouse CD47 = biological target: T2, recombinant mouse CD47 (mouse, UniProt Q61735 19-140, limits assumed); assay: dual ELISA: coat mCD47-Fc, titrated mSIRPα-Fc-CD40L, detect mCD40-His, tertiary anti-his-HRP, OD450. Signal needs both CD47 and CD40 to be bound.
T2 construct: also called murine CD47
T2 sequence (looked up): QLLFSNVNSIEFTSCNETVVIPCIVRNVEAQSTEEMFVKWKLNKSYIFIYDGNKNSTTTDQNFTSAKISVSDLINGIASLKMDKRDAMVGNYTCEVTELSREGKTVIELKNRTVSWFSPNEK

Sequence of FcγR-Ia (P12314 16-288 limits assumed): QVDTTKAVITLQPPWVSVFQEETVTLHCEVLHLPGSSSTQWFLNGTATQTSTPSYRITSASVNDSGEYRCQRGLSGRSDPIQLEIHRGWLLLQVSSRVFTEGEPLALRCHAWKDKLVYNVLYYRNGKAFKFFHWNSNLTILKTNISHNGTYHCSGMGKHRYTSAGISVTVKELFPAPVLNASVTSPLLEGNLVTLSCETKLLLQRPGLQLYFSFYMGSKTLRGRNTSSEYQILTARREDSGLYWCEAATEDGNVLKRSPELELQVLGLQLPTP
Sequence of recombinant human CD40 (human) (P25942 21-193 limits assumed): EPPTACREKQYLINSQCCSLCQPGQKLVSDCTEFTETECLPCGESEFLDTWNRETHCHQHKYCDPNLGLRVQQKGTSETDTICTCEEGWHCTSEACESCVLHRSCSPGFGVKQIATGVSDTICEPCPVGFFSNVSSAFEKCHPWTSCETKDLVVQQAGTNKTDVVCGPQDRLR

Molecule: Fc-CD40L (Fc fusion)
- Kd [1]: 1.15 nM
- koff [1]: 0.000351 s⁻¹
- kon [1]: 304000 M⁻¹ s⁻¹

Molecule: IgG1 (antibody)
- Kd (FcγR-Ia): 8.42 nM
- koff (FcγR-Ia): 0.000156 s⁻¹
- kon (FcγR-Ia): 18400 M⁻¹ s⁻¹

Molecule: SIRPα(CD172a)-Fc-OX40L: Chimeric protein: ECD of SIRPα and ECD of OX40L fused via an antibody Fc domain (human sequence SEQ ID NO: 61)
- tumor size (tumors; mouse, in vivo): effective in reducing tumor size
- survival (tumors; sixteenth day following treatment): had any survivors by the sixteenth day following treatment

Molecule: rituximab: anti-CD20 antibody [reference compound]
- macrophage activation (CD80, CD86) and expression of type I interferon genes (IFNα1, IFNβ1) [2]: induced macrophage activation and the expression of type I interferon genes

B1: murine SIRPα-Fc-CD40L chimeric protein (Fc fusion)
chain: KELKVTQPEKSVSVAAGDSTVLNCTLTSLLPVGPIRWYRGVGPSRLLIYSFAGEYVPRIRNVSDTTKRNNMDFSIRISNVTPADAGIYYCVKFQKGSSEPDTEIQSGGGTEVYVLAKPSPPEVSGPADRGIPDQKVNFTCKSHGFSPRNITLKWFKDGQELHPLETTVNPSGKNVSYNISSTVRVVLNSMDVNSKVICEVAHITLDRSPLRGIANLSNFIRVSPTVKVTQQSPTSMNQVNLTCRAERFYPEDLQLIWLENGNVSRNDTPKNLTKNTDGTYNYTSLFLVNSSAHREDVVFTCQVKHDQQPAITRNHTVLGFAHSSDQGSMQTFPDNNATHNWNHRRLDKVEEEVNLHEDFVFIKKLKRCNKGEGSLSLLNCEEMRRQFEDLVKDITLNKEEKKENSFEMQRGDEDPQIAAHVVSEANSNAASVLQWAKKGYYTMKSNLVMLENGKQLTVKREGLYYVYTQVTFCSNREPSSQRPFIVGLWLKPSSGSERILLKAANTHSSSQLCEQQSVHLGGVFELQAGASVFVNVTEASQVIHRVGFSSFGLLKL
- EC50 (recombinant mouse CD40): 7.37 nM and 8.73 nM
- EC50 (recombinant mouse CD47): 7.37 nM and 8.73 nM
